From patent US20220387487A1, “COMPOSITIONS AND METHODS FOR TREATMENT OF CANCER” (Aleta Biotherapeutics Inc., priority 2019, published 2022)

Test system: FMC63
Test: CD19 variant binding to anti-CD19 antibody FMC63 (score)
Conditions: Table 1A, CD19 single mutants (positions of SEQ ID NO:2)

Chain of FMC63 (as listed by the source): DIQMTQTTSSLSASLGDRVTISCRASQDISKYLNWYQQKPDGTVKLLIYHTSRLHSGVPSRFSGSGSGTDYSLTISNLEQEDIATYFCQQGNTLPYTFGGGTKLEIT
Chain of FMC63 (as listed by the source): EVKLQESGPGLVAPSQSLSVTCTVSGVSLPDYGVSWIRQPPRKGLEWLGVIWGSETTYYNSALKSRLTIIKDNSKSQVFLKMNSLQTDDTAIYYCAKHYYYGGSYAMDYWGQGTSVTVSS

Molecule	FMC63 Binding Score
V260R: CD19 variant (protein) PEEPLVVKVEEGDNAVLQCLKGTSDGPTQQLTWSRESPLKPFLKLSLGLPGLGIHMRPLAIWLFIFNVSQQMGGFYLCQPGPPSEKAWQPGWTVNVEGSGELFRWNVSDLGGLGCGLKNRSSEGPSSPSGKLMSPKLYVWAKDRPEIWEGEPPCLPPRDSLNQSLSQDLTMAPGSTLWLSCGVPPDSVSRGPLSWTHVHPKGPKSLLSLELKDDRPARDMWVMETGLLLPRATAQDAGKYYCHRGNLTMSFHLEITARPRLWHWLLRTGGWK	6.7 ± .3
L59E: CD19 variant (protein) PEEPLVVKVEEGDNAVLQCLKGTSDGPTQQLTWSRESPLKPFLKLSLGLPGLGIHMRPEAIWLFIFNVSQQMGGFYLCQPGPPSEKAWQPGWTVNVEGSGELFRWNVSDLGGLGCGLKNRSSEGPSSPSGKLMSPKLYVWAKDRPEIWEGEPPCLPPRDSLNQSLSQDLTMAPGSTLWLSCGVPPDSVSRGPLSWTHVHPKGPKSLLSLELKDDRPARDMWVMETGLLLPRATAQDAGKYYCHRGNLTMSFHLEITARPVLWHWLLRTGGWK	6.3 ± .5
W262Q: CD19 variant (protein) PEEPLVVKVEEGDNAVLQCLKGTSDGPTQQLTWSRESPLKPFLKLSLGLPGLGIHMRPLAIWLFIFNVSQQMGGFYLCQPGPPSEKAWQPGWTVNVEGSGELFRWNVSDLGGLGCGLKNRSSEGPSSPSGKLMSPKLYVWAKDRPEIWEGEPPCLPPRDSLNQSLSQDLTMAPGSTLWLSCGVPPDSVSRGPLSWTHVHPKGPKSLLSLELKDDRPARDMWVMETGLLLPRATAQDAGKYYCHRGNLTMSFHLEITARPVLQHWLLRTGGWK	6.8 ± .6
A232V: CD19 variant (protein) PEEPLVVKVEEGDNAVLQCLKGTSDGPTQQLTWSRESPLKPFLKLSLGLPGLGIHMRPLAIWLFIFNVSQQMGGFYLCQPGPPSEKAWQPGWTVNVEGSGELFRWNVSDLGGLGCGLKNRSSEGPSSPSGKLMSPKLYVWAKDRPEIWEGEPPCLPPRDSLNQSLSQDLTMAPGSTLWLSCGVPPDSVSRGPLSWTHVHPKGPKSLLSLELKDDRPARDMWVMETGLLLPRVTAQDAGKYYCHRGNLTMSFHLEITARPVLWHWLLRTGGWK	6.3 ± .2
I255V: CD19 variant (protein) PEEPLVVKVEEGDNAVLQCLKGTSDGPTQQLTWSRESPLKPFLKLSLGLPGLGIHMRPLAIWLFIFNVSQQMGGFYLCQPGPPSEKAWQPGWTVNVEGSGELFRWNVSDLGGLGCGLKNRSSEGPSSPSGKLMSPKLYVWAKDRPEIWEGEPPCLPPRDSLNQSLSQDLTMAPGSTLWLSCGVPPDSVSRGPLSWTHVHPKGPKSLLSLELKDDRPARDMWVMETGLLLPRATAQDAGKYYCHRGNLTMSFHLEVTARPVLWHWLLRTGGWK	6.4 ± .4
W262A: CD19 variant (protein) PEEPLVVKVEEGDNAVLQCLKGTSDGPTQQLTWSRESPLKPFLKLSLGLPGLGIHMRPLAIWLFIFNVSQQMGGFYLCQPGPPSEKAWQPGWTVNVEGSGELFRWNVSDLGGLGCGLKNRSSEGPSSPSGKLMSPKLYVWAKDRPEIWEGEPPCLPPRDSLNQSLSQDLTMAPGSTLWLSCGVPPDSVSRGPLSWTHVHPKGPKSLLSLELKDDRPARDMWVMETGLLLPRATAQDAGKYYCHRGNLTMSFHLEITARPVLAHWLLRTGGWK	6.9 ± .5
V16F: CD19 variant (protein) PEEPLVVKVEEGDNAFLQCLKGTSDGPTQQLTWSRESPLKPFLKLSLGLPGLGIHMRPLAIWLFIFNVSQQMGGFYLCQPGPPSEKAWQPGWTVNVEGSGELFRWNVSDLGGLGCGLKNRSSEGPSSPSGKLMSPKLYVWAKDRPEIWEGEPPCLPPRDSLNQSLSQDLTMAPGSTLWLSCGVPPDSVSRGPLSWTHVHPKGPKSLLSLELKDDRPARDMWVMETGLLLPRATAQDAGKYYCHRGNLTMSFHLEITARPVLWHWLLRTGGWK	7. ± 1.
M223T: CD19 variant (protein) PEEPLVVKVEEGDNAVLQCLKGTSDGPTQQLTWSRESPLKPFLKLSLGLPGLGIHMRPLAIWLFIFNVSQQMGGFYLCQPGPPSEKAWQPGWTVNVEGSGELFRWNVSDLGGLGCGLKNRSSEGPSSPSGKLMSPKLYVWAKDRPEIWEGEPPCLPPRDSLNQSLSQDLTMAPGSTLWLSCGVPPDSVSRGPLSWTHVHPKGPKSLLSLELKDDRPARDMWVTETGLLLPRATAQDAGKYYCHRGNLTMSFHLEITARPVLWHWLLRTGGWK	6.7 ± .4
L59S: CD19 variant (protein) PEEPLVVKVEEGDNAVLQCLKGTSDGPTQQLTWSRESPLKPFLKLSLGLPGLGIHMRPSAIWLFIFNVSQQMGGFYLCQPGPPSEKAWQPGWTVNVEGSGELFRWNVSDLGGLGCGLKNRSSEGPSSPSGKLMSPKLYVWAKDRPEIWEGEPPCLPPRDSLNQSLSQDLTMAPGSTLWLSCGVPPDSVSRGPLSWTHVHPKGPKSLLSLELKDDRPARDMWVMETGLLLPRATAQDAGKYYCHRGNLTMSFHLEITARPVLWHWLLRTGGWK	6.4 ± .4
K212S: CD19 variant (protein) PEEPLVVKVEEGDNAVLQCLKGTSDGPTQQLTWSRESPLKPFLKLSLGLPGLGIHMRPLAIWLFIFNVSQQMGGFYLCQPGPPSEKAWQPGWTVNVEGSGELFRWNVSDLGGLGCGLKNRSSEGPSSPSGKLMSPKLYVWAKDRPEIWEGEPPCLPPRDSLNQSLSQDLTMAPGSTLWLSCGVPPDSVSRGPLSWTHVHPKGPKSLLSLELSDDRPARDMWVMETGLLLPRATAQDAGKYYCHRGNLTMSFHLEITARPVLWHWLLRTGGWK	6.8 ± .6
G269I: CD19 variant (protein) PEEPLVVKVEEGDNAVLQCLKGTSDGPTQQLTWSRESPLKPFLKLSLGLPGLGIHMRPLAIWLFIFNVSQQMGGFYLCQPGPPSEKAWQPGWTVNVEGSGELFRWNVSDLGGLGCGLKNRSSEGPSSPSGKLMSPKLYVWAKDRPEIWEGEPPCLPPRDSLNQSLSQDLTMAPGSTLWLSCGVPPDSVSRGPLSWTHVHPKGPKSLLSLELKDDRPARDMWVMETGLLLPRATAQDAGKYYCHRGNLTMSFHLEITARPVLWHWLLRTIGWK	6.7 ± .8
W264T: CD19 variant (protein) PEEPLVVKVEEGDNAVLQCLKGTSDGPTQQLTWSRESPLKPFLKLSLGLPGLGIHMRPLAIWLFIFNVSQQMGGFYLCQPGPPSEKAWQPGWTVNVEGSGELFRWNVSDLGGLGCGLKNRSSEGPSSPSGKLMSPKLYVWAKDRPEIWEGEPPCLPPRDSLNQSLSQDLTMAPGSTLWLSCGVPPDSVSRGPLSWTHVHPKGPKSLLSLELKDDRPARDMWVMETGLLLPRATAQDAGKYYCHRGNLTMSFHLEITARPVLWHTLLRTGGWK	7.2 ± .8
R215W: CD19 variant (protein) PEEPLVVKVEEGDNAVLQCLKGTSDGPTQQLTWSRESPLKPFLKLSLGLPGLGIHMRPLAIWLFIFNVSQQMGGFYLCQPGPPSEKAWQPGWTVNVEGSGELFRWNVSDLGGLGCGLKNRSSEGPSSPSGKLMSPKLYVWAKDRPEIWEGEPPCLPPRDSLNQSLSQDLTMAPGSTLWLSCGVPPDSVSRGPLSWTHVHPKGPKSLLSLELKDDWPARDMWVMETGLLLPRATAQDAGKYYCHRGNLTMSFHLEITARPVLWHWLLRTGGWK	7.1 ± 1.1
L59G: CD19 variant (protein) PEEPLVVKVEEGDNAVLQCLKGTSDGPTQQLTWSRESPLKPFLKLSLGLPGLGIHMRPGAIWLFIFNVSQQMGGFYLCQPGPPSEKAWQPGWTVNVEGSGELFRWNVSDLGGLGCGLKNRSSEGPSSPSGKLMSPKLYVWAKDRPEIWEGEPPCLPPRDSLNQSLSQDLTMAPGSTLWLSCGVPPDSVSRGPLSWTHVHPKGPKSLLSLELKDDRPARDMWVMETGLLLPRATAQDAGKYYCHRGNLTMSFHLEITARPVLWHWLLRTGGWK	6.5 ± .3
Y240W: CD19 variant (protein) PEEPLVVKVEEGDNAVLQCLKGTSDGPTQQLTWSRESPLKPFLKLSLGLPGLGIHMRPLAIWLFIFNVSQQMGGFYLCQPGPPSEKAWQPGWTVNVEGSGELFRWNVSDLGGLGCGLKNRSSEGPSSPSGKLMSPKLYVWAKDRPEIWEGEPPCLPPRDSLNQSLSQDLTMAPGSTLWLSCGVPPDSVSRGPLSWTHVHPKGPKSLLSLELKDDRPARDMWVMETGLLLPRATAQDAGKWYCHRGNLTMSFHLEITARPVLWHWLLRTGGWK	6.3 ± .3
W262G: CD19 variant (protein) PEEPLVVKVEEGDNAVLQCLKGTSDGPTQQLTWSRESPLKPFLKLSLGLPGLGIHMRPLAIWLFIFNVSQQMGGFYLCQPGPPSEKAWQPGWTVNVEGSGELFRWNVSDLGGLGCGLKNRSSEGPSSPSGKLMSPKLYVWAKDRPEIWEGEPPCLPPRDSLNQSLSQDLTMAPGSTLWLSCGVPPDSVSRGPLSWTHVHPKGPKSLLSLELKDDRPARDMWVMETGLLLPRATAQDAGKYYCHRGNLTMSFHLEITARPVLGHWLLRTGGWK	6.4 ± .2
W262H: CD19 variant (protein) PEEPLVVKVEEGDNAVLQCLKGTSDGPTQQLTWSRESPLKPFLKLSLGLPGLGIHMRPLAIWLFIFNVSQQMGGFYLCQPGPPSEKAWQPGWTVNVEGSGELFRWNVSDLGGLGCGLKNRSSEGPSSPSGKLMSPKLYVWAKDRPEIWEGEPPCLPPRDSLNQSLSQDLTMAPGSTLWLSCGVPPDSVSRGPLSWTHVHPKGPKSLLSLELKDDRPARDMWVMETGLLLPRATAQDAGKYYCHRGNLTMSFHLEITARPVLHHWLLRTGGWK	6.7 ± 1.
H243T: CD19 variant (protein) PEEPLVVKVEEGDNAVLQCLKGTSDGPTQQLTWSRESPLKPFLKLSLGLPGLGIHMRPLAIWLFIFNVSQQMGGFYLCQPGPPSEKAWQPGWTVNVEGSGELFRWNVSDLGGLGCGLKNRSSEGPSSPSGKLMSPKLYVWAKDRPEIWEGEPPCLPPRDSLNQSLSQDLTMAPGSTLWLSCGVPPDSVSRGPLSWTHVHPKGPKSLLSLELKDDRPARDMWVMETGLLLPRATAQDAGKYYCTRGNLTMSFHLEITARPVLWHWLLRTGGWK	7.1 ± .9
